Here are results for five molecules from patent publication US20210163606A1 (ATYR PHARMA, published 2021).

The target of assay [1] is T1, human NRP2 variant 2 (hNRP2), untagged, on Expi293 cells (Human, UniProt O60462 23-931).
T1 construct: Transcript NM_003872 / NP_003863.2; also called Expi293-hNRP2 clonal cells; Human NRP2a (version 2)
T1 sequence: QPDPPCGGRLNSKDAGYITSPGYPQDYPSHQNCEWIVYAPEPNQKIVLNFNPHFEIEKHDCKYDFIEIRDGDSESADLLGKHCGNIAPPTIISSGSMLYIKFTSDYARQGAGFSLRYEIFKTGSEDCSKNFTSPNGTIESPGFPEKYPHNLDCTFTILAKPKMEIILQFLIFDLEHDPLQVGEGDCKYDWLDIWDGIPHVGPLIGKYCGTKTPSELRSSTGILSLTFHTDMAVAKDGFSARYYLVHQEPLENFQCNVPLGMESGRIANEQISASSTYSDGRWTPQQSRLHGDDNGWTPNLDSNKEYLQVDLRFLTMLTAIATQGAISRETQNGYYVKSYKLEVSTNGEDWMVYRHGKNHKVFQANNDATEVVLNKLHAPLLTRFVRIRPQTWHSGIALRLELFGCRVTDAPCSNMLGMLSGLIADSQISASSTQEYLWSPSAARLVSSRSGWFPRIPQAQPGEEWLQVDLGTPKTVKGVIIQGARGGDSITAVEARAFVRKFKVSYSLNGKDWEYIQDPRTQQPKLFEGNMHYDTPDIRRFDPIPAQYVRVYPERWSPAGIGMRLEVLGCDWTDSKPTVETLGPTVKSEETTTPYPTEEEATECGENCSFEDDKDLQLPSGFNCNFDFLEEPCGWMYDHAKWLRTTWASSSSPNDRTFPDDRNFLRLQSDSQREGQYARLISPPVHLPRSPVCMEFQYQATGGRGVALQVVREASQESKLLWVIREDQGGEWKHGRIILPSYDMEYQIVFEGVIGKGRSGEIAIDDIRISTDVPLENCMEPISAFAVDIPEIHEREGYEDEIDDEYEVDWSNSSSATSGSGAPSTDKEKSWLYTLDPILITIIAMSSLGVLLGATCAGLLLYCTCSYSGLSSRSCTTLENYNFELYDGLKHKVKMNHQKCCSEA
The assay is described as follows: flow cytometry on Expi293-hNRP2 clonal cells. The protocol:
Expi293-hNRP2 clonal cells were collected by centrifugation at 300 g for 5 minutes, and washed twice by DPBS (with calcium and magnesium, ThermoFisher Cat #14040133). Washed cells were added to a 96-well V-bottom plate (ThermoFisher Cat #1424572) at 100,000 cells/well in […] of DPBS added with Zombie Violet viability stain (Biolegend Cat #423114, diluted at 1:500). From this step on, cells were protected from light. Cells were kept at room temperature for 10 min and pelleted down at 300 g for 5 minutes at 4° C. Supernatants containing Zombie Violet were discarded, and without washing, 30 uL of antibodies diluted in the flow wash buffer (FWB, DPBS plus 2% FBS and 0.1% sodium azide to inhibit receptor internalization) were added to the cells. For anti-NRP2 antibody staining on Expi293-hNRP2 clonal cells, in-house human anti-NRP2 antibodies were tested at final concentrations of 0.006-100 nM at 4-fold dilutions. […] Binding was allowed to proceed on ice for 40-60 minutes. Cells were then pelleted at 300 g for 5 minutes at 4° C., supernatants removed, and cells washed twice by adding 150 μL of FWB and centrifuging the cells again in the same conditions. To detect a-NRP2 binding on the cell surface, Cy3-conjugated goat anti-human IgG Fc (Jackson ImmunoResearch Cat #109165098) was added to the cells at a final concentration of 3 μg/mL in 30 μL of FWB. After 30-40 minutes of incubation on ice, cells were pelleted at 300 g for 5 minutes at 4° C. and supernatants removed, and the cells were washed twice as described previously. Cells were then resuspended in FWB before acquisition on the Cytoflex. Gains were set based on staining controls. Cells were collected with typically more than 10,000 events. Cells were then analyzed on FlowJo analysis software by excluding dead cells and gating singlets. The statistical analysis was performed using GraphPad Prism. A four-parameter variable-slope curve was fitted to the data ([agonist] vs. response) using non-linear regression, and the EC₅₀ and r2 for each curve was determined.
The EC₅₀ of four anti-NRP2 antibodies directed against different domains of NRP2, were measured for binding to Expi293-hNRP2 clonal cells (see Table E1 and FIG. 3).
(In flow cytometry, cells or beads pass a laser one at a time.)

The target in assay [2] is T2, cynomolgus monkey NRP2 on transfected Expi293 cells (cynomolgus monkey).
T2 construct: whole, on cells; Plasmid bought from Origene; transient transfection; also called Cyno NRP2
Kind of assay: flow cytometry on Cyno NRP2-transfected Expi293 cells. Here is the method: Binding of a-NRP2 to cynomolgus monkey NRP2-transfected Expi293 cells. Cynomolgus monkey (cyno) NRP2-transfected Expi293 cells were collected by centrifugation at 300 g for 5 minutes, and washed twice by DPBS (with calcium and magnesium, ThermoFisher Cat #14040133).
Washed cells were added to a 96-well V-bottom plate (ThermoFisher Cat #1424572) at 100,000 cells/well in 50 μL of DPBS added with Zombie Violet viability stain (Biolegend Cat #423114, diluted at 1:500). From this step on, cells were protected from light. Cells were kept at room temperature for 10 min and pelleted down at 300 g for 5 minutes at 4° C. Supernatants containing Zombie Violet were discarded, and without washing, 30 uL of antibodies diluted in the flow wash buffer (FWB, DPBS plus 2% FBS and 0.1% sodium azide to inhibit receptor internalization) were added to the cells. For a-NRP2 staining on Cyno NRP2-transfected Expi293 cells, in-house human anti-NRP2 antibodies were tested at final concentrations of 0.006-100 nM at 4-fold dilutions. For each test, NRP2 over-expression on the cell surface was validated by a-NRP2 staining (10 μg/mL R&D #AF567 a-NRP2) in separate wells. Binding was allowed to proceed on ice for 40-60 minutes. Cells were then pelleted at 300 g for 5 minutes at 4° C., supernatants removed, and cells washed twice by adding 150 μL of FWB and centrifuging the cells again in the same conditions. To detect a-NRP2 binding on the cell surface, Cy3-conjugated goat anti-human IgG Fc or AF647-conjugated donkey anti-goat IgG (Jackson ImmunoResearch Cat #109165098 & 705605147) was added to the cells at a final concentration of 3 μg/mL in 30 μL of FWB. After 30-40 minutes of incubation on ice, cells were pelleted at 300 g for 5 minutes at 4° C. and supernatants removed, and the cells were washed twice as described previously. […] Cells were then analyzed on FlowJo analysis software by excluding dead cells and gating singlets.
The EC₅₀ of three anti-NRP2 antibodies, each against a distinct domain of NRP2, were measured for binding to Cyno NRP2-transfected Expi293 cells (see Table E2 and FIG. 4).

The target in assay [3] is T3, Cynomolgus NRP2 (aa23-854) with C-terminal Fc-tag (cynomolgus monkey).
T3 construct: range 23-854; sensorgrams fitted to a bivalent analyte model; also called Cynomolgus NRP2 antigen protein
Kind of assay: SPR (ProteOn XPR36), antibody captured on anti-human Fab-kappa, cyno NRP2-Fc as analyte, bivalent analyte fit. The protocol: Anti-NRP2 antibody binding and affinity measurements. […] SPR experiments were conducted on a Bio-Rad ProteOn XPR36 Protein Interaction Array instrument. Biotinylated anti-human antibody (ThermoFisher Cat #7103302100) was immobilized on ProteOn NLC sensor chips. Anti-NRP2 antibodies were subsequently flowed over and captured by the anti-human antibody. Cynomolgus NRP2 antigen protein was flowed over the captured antibody at varying concentrations (150, 50, 16.67, 5.56, 1.85 nM). The sensor chip surface was regenerated between each analyte run to remove anti-NRP2 antibodies and NRP2 protein. Data was double referenced against a surface with no anti-NRP2 antibody captured (immobilized anti-human antibody only) and a buffer only blank. Affinity constants were derived by globally fitting sensograms to a bivalent analyte interaction model in the ProteOn manager software. For each anti-NRP2 antibody, data from the multiple NRP2 concentrations was fit as a single data set with dissociation rate constant (kd), association rate constant (kₐ) and Rₘₐₓ values as global parameters. The reported binding affinity is the equilibrium dissociation constant (KD) calculated from kd/kₐ. [0681] Running buffer: 50 mM HEPES, 300 mM NaCl, 5 mM CaCl₂, 0.005% Tween-20, pH 7.4 [0682] Immobilized antibody: CaptureSelect Human Fab-kappa Kinetics Biotin Conjugate, Thermo Fisher Cat #7103302100 [0683] Antigen: Cynomolgus NRP2 (aa23-854) with C-terminal Fc-tag [0684] Regeneration buffer: 10 mM glycine pH 2.0

In assay [4] the target is T1, human NRP2 variant 2 (hNRP2), untagged, …. The assay is described as follows: flow cytometry as described for Table E1 (Expi293-hNRP2 cells); the cells for this surrogate are not said separately.

B1: aNRP2-11v7 (antibody, V domains shown)
VH: QVQLVQSGAEVKKPGASVKVSCKASGYTFTSFGISWVRQAPGQGLEWIGEIYPRSGNTYYNENFKGRATMTADKSTSTAYMELRSLRSDDTAVYYCARSSGYYGSTPFPYWGQGTLVTVSS
VL: DIQMTQSPSSLSASVGDRVTITCRASQDISNYLNWYQQKPGKAVKLLIYYTSRLHSGVPSRFSGSGSGTDYTFTISSLQPEDIATYYCQQGNTLPWTFGGGTKVEIK
notes: also called aNRP22-11v7
The term EC50 denotes the concentration needed to bring the measured effect to its halfway point. As for B1, the EC50 in assay [1] came out at 6.3 nM; in assay [2], 5.7 nM. The molecule also returned a Kd in assay [3] of 12 nM.

B2: aNRP2-10v13 (antibody, V domains shown)
VH: EVQLVQSGAEVKKPGATVKISCKVSGFNIKDYYVHWVQQAPGKGLEWMGRIDVHDDETKYAPKFQGRVTITADTSTDTAYMELSSLRSEDTAVYYCATPIYGAREAWFAYWGQGTLVTVSS
VL: DIQMTQSPSSLSASVGDRVTITCTASSSVSSSYLHWYQQKPGKAPKLLIYRTSNLASGVPSRFSGSGSGTDFTLTISSLQPEDFATYYCHQYYRSPPTFGGGTKVEIK
B2 registered an EC50 in assay [1] of 0.65 nM.

B3: aNRP2-14v9 (antibody, V domains shown)
VH: QLQLVESGGGVVQPGRSLRLSCTVSGFSLTSYGVHWVRQAPGKGLEWVGLIWSGGSTDYSPAFISRFTISEDNSKSTVYLQMNSLRAEDTAVYFCARNSYSSGYYAMDYWGQGTTVTVSS
VL: DIQLTQSPSFLSASVGDRVTITCKASQNVGHAVAWYQQKPGKAPKLLIYSASNRYTGVPSRFSGSGSGTEFTLTISSLQPEDFATYYCQQYSRYPPYTFGGGTKVEIK
B3: the results for the EC50 in assay [1] and in assay [2] were 1.2 nM and 2.8 nM, respectively. For the same molecule, the Kd in assay [3] is 0.017 nM.

B4: aNRP2-14v10 (antibody, V domains shown)
VH: QLQLVESGGGVVQPGRSLRLSCTVSGFSLTSYGVHWVRQAPGKGLEWVGLIWSGGSTDYSPAFISRFTISEDNSKSTVYLQMNSLRAEDTAVYFCARNSYSSGYYAMDYWGQGTTVTVSS
VL: DIQLTQSPSFLSASVGDRVTITCKASQNVGTAVAWYQQKPGKAPKLLIYSASNRYTGVPSRFSGSGSGTEFTLTISSLQPEDFATYYCQQRSRYPPYTFGGGTKVEIK
Turning to B4, a half-maximal effect in assay [1] (EC50) was put at 47.5 nM.

B5: aNRP2-28v2/4 (antibody, V domains shown)
VH: QSVKESEGGLFKPTDTLTLTCTVSGFSLSTYSISWVRQAPGNGLEWIGIIGDAGGIIYATWAKSRSTITRSTALNTVTLKMTGLTAADTATYFCARDGTAFDIWGPGTLVTVSS
VL: AYDMTQTPASVEVVVGGTVTIKCQASQSIYSKLGWYQQKPGQPPKLLIYRASTLASGVSSRFKGSGSGTEYTLTISGVQCDDAATYYCQQDYSYINVDNIFGGGTEVVVK
notes: Mouse surrogate antibody; also called aNRP2-28v4
For the molecule B5, the EC50 in assay [4] was determined as 1.58 nM.
